Data taken from article PMC5224880, “Discovery and Molecular Basis of a Diverse Set of Polycomb Repressive Complex 2 Inhibitors Recognition by EED” (PLoS ONE, 2017).

Molecular target: T1, EED, comprising residues 76–441 (TEV-cleaved, used for crystallization) (human, UniProt O75530 76-441)
T1 construct: EED (embryonic ectoderm development), human, residues 76-441, cloned into pGEX-KG; The EED in PDB 5H13 (no EZH2 peptide) was cleaved with thrombin instead of TEV; also called embryonic ectoderm development; TEV-cleaved EED protein; source: E. coli BL21-CodonPlus(DE3)-RIL, purified (Glutathione Sepharose 4B, TEV cleavage, Ni2+-NTA flow-through, Superdex 75); not shown: GST, N-terminal, cleaved
T1 sequence (O75530 76-441): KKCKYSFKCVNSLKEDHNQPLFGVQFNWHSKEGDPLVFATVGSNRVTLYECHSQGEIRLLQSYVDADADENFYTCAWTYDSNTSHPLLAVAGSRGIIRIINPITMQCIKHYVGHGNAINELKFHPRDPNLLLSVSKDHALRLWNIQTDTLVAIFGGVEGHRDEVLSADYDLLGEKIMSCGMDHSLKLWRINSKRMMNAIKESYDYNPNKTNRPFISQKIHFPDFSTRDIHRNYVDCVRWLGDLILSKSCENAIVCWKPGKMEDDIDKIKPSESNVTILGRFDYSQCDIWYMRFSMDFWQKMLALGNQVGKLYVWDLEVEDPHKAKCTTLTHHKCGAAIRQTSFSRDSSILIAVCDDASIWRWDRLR
Experiment: crystal structure; TEV-cleaved EED (76-441) mixed with EZH2 peptide at molar ratio 1:2.5; EED-EBD crystals soaked with EED709, EED666 or EED210 (0.1 M Tris pH 8.0, 16% PEG 8000, 20°C) or co-crystallised with EED162 (0.1 M Bis-Tris pH 6.0, 0.2 M MgCl2, 20% PEG 3350)
Conditions: both partners purified

- binding result: binds
B1: EZH2 peptide (residues 40–68, EBD) (peptide)
peptide: KSMFSSNRQKILERTEILNQEWKQRRIQPV
notes: EZH2 (Enhancer of zeste homolog 2), human; Printed as NH2-...-CO2H (free ends); also called EBD peptide; EZH2 peptide (40–68); source: synthetic peptide (GL Biochem)
